# Target: LINE-1 ORF2p (L1 ORF2p), wild type (Homo sapiens, UniProt O00370 1-1275)
# Test: cryo-EM structure (3.2 A); dTTP bound as incoming nucleotide; dTTP, dATP, ddGTP 1 mM each; 10 mM MgCl2; BS3 cross-linked; Cryo-EM: 600 nm ORF2p, RNA-DNA duplex 2:1 over protein, 30 mM K-HEPES pH 7.9, 150 mM KCl, 10 mM MgCl2, 5 mM EGTA, 1 mM DTT, 37 C 30 s, then 4 mM BS3 on ice 5 mi
# Sequence of LINE-1 ORF2p (L1 ORF2p), wild type (O00370 whole entry): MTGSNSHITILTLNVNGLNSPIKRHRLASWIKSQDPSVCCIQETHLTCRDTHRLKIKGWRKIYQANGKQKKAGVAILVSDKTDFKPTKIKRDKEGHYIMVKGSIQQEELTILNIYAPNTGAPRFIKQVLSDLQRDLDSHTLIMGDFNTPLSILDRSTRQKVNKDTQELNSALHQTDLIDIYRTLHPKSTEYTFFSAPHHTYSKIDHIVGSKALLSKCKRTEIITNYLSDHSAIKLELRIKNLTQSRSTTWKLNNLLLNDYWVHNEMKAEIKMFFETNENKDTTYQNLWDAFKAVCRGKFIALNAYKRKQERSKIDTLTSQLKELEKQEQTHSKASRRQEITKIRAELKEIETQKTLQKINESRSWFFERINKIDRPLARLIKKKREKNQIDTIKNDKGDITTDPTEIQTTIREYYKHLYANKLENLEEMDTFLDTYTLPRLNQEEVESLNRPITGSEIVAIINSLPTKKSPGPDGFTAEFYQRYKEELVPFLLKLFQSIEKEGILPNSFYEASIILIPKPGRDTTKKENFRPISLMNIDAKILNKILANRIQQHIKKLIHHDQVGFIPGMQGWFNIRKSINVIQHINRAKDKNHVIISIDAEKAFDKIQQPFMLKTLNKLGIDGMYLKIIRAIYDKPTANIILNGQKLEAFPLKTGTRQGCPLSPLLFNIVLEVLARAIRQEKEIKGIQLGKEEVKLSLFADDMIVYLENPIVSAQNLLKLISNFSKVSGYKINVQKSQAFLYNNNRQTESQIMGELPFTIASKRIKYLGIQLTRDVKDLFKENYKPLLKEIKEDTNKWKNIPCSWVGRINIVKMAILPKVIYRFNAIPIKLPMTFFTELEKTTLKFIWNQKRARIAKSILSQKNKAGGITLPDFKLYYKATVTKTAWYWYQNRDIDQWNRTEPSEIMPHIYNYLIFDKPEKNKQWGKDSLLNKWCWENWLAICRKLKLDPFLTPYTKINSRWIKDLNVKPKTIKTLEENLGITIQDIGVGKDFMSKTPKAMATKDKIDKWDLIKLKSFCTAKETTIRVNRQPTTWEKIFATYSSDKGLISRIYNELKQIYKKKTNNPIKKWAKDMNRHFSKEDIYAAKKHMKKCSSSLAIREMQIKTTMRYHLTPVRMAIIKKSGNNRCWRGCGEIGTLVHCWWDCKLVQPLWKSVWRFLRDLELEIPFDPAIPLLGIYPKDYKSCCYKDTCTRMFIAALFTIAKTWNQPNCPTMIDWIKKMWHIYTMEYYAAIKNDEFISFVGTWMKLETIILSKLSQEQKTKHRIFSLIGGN
binder,measurement,value
"Synthetic template RNA (74 nt) with 8 nt DNA primer extended to 13 nt, ending in ddG (mixed, 3' dideoxyguanosine on the cDNA strand) RNA: GCAGACUGCGUAGGCGUGCAGGAACCUGCACGCCUACGCAGUCUGCAAAAAAAAAAAAAAACAAUAUCGGCGCG DNA: CGCGCCGATATTG",binding result,binds
